Positions count from the first letter of the chain named. Names may count otherwise.
B1: GLS3000 T92Y one-amino acid altered one-arm antibody (CE115HA000-pE22Hh / Kn010G3 / GLS3000 T92Y-kappa) (antibody, human IgG1, kappa, L234A L235A, N297A, name in Kabat numbering)
heavy: QVQLVESGGGVVQPGRSLRLSCAASGFTFSNAWMHWVRQAPGKGLEWVAQIKAKSNNYATYYAESVKGRFTISRDDSKNSLYLQMNSLKTEDTAVYYCRYVHYGAYYGVDAWGQGTTVTVSSASTKGPSVFPLAPSSKSTSGGTAALGCLVKDYFPEPVTVSWNSGALTSGVHTFPAVLQSSGLYSLSSVVTVPSSSLGTQTYICNVNHKPSNTKVDKKVEPKSCDKTHTCPPCPAPEAAGGPSVFLFPPKPKDTLMISRTPEVTCVVVDVSHEDPEVKFNWYVDGVEVHNAKTKPREEQYASTYRVVSVLTVLHQDWLNGKEYKCKVSNKALPAPIEKTISKAKGQPREPQVYTLPPSRCELTKNQVSLSCAVKGFYPSDIAVEWESNGQPENNYKTTPPVLDSDGSFFLVSKLTVDKSRWQQGNVFSCSVMHEALHNHYTQKSLSLSPDYKDDDDK
chain: EPKSSDKTHTCPPCPAPELLGGPSVFLFPPKPKDTLMISRTPEVTCVVVDVSHEDPEVKFNWYVDGVEVHNAKTKPREEQYNSTYRVVSVLTVLHQDWLNGKEYKCKVSNKALPAPIEKTISKAKGQPREPQVCTLPPSRDELTKNQVSLWCLVKGFYPSDIAVEWESNGQPENNYKTTPPVLDSDGSFFLYSKLTVDKSRWQQGNVFSCSVMHEALHNRYTQKSLSLSP
light: DIVMTQSPLSLPVTPGEPASISCRSSQSLVHSNRNTYLHWYQQKPGQAPRLLIYKVSNRFSGVPDRFSGSGSGTDFTLKISRVEAEDVGVYYCGQGYQVPYTFGQGTKLEIKRTVAAPSVFIFPPSDEQLKSGTASVVCLLNNFYPREAKVQWKVDNALQSGNSQESVTEQDSKDSTYSLSSTLTLSKADYEKHKVYACEVTHQGLSSPVTKSFNRGEC
notes: One-arm antibody; substitution position in Kabat numbering; also called L chain altered form, Kabat 92 T to Y
B2: GLS3000 T97P one-amino acid altered one-arm antibody (CE115HA000-pE22Hh / Kn010G3 / GLS3000 T97P-kappa) (antibody, human IgG1, kappa, L234A L235A, N297A, name in Kabat numbering)
heavy: B1 heavy
chain: B1 chain
light: B1 light with Y97T, T102P
notes: One-arm antibody; substitution position in Kabat numbering; also called L chain altered form, Kabat 97 T to P
B3: GLS3000 V94Q one-amino acid altered one-arm antibody (CE115HA000-pE22Hh / Kn010G3 / GLS3000 V94Q-kappa) (antibody, human IgG1, kappa, L234A L235A, N297A, name in Kabat numbering)
heavy: B1 heavy
chain: B1 chain
light: B1 light with Y97T, V99Q
notes: One-arm antibody; substitution position in Kabat numbering; also called L chain altered form, Kabat 94 V to Q
B4: GLS3000 V94R one-amino acid altered one-arm antibody (CE115HA000-pE22Hh / Kn010G3 / GLS3000 V94R-kappa) (antibody, human IgG1, kappa, L234A L235A, N297A, name in Kabat numbering)
heavy: B1 heavy
chain: B1 chain
light: B1 light with Y97T, V99R
notes: One-arm antibody; substitution position in Kabat numbering; also called L chain altered form, Kabat 94 V to R
B5: GLS3000 V94S one-amino acid altered one-arm antibody (CE115HA000-pE22Hh / Kn010G3 / GLS3000 V94S-kappa) (antibody, human IgG1, kappa, L234A L235A, N297A, name in Kabat numbering)
heavy: B1 heavy
chain: B1 chain
light: B1 light with Y97T, V99S
notes: One-arm antibody; substitution position in Kabat numbering; also called L chain altered form, Kabat 94 V to S
B6: GLS3000 V94T one-amino acid altered one-arm antibody (CE115HA000-pE22Hh / Kn010G3 / GLS3000 V94T-kappa) (antibody, human IgG1, kappa, L234A L235A, N297A, name in Kabat numbering)
heavy: B1 heavy
chain: B1 chain
light: B1 light with Y97T, V99T
notes: One-arm antibody; substitution position in Kabat numbering; also called L chain altered form, Kabat 94 V to T
B7: GLS3000 V94W one-amino acid altered one-arm antibody (CE115HA000-pE22Hh / Kn010G3 / GLS3000 V94W-kappa) (antibody, human IgG1, kappa, L234A L235A, N297A, name in Kabat numbering)
heavy: B1 heavy
chain: B1 chain
light: B1 light with Y97T, V99W
notes: One-arm antibody; substitution position in Kabat numbering; also called L chain altered form, Kabat 94 V to W
B8: GLS3000 V94Y one-amino acid altered one-arm antibody (CE115HA000-pE22Hh / Kn010G3 / GLS3000 V94Y-kappa) (antibody, human IgG1, kappa, L234A L235A, N297A, name in Kabat numbering)
heavy: B1 heavy
chain: B1 chain
light: B1 light with Y97T, V99Y
notes: One-arm antibody; substitution position in Kabat numbering; also called L chain altered form, Kabat 94 V to Y

Biological target: T1, CD3 epsilon homodimer protein (UniProt P07766 23-126)
T1 construct: also called CD3 (CD3 epsilon)
T1 sequence (P07766 23-126): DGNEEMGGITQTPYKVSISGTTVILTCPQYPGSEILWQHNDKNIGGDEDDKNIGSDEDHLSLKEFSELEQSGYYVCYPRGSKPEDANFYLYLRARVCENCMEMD
Test: SPR Biacore T200, CD3 epsilon homodimer immobilised on CM4, one-arm antibody as analyte, single-cycle kinetics; reference unaltered GLS3000 antibody;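 also: CD3 epsilon homodimer attached to the CM4 chip via amine coupling, measured at 25 °C with HBS-EP+ as running buffer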
Experimental: An appropriate amount of CD3 epsilon homodimer protein was immobilized onto Sensor chip CM4 (GE Healthcare Japan Corp.) by the amine coupling method. Then, the antibody having an appropriate concentration was injected thereto as an analyte and allowed to interact with the CD3 epsilon homodimer protein on the sensor chip. Then, the sensor chip was regenerated by the injection of 10 mmol/L glycine-HCl (pH 1.5). The assay was conducted at 25 degrees C., and HBS-EP+(GE Healthcare Japan Corp.) was used as a running buffer. […] Each parameter was calculated using Biacore T200 Evaluation Software (GE Healthcare Japan Corp.).
Specifically, when the amount of the GLS3000-containing antibody bound was defined as X and the amount of the L chain one-amino acid altered form bound was defined as Y, a value of Z (ratio of amounts bound)=Y/X was used.

Row | Binder | dissociation constant KD(M) ratio of L chain altered form to GLS3000 [ratio]
1 | B1 | 2.55
2 | B2 | 3.35
3 | B3 | 1.1
4 | B4 | 1.11
5 | B5 | 0.81
6 | B6 | 1.06
7 | B7 | 1.81
8 | B8 | 2.45

Source: patent US20240270846A1 (published 2024)
